Assay results: US20170247475A1 (Boehringer Ingelheim, published 2017)

T1: human VEGF-C (human, UniProt P49767 103-227)
T1 construct: also called hVEGF-C
T1 sequence (looked up): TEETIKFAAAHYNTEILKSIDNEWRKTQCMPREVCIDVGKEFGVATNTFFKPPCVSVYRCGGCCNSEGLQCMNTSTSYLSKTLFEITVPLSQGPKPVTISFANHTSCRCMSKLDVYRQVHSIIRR

T2: human PIGF (human, UniProt P49763-2 21-149, limits assumed)
T2 construct: also called hPIGF; PLGF
T2 sequence (looked up): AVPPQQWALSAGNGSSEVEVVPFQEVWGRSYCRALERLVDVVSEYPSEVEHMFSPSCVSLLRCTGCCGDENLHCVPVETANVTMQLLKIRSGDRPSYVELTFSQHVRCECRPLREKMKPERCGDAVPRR

T3: human VEGF-B (human, UniProt P49765-2 22-188, limits assumed)
T3 construct: also called hVEGF-B
T3 sequence (looked up): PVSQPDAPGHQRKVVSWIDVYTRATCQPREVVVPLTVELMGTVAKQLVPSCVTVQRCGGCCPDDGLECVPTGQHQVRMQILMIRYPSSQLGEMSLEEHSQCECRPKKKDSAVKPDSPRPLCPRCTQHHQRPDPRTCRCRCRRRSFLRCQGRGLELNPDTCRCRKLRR

T4: human VEGF-D (human, UniProt O43915 93-201)
T4 construct: also called hVEGF-D
T4 sequence (looked up): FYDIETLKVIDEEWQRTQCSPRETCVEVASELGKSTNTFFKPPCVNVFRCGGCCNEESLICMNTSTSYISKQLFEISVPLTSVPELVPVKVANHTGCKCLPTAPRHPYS

T5: recombinant mouse VEGF164 (mouse, UniProt Q00731-2 27-190)
T5 construct: biotinylated in the mVEGFR2 AlphaScreen; also called rmVEGF164; mVEGF164
T5 sequence (looked up): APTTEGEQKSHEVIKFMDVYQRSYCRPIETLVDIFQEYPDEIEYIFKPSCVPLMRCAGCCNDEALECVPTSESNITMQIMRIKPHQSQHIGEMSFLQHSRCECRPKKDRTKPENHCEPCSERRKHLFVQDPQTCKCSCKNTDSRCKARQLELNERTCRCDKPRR

T6: recombinant human VEGF121 (human, UniProt P15692-9 27-147)
T6 construct: also called rhVEGF121; hVEGF121
T6 sequence (looked up): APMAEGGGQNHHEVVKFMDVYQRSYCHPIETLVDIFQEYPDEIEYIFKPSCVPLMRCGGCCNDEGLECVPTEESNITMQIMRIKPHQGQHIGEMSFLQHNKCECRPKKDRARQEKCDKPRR


Tests used:
VEGF [1] = test: cell-based or functional assay
[2] = biological target: T7, recombinant human VEGF165 (human, UniProt P15692-4 27-191); test: binding ELISA, coated rhVEGF165
T7 construct: also called hVEGF165; rhVEGF165

[3] = biological target: T7, recombinant human VEGF165; test: VEGF/VEGFR1 competition AlphaScreen
Protocol: (§1) Finally, streptavidin donor beads (20 μg/ml) are added and after 1 hour of incubation in the dark, fluorescence is measured on the Envision microplate reader.

[4] = biological target: T7, recombinant human VEGF165; test: VEGF/VEGFR2 competition AlphaScreen
Protocol: as §1

human VEGF-C = biological target: T1, human VEGF-C; test: binding ELISA on coated VEGFC
Protocol: (§2) Binding to VEGFB, VEGFC, VEGFD and PIGF is assessed via a solid phase binding ELISA. In brief, VEGFB, VEGFC, VEGFD and PIGF (R&D Systems, Minneapolis, Minn., USA) are coated overnight at 4° C. at 1 μg/mL in a 96-well MaxiSorp plate (Nunc, Wiesbaden, Germany). Wells are blocked with a casein solution (1% in PBS). […] As positive controls serial dilutions of the appropriate receptors are taken along and detected with horseradish peroxidase (HRP)-conjugated goat anti-human IgG, Fc specific antibody (Jackson Immuno Research Laboratories Inc., West Grove, Pa., USA) and a subsequent enzymatic reaction in the presence of the substrate TMB (3,3′,5,5′-tetramentylbenzidine) (Pierce, Rockford, Ill., USA).

human PIGF = biological target: T2, human PIGF; test: binding ELISA on coated PIGF
Protocol: as §2

[5] = biological target: T7, recombinant human VEGF165; test: hVEGF165/hVEGFR2-Fc competition ELISA
human VEGF-B = biological target: T3, human VEGF-B; test: binding ELISA on coated VEGFB
Protocol: as §2

human VEGF-D = biological target: T4, human VEGF-D; test: binding ELISA on coated VEGF D
Protocol: as §2

[6] = biological target: T7, recombinant human VEGF165; test: VEGF165/hVEGFR1-Fc competition AlphaScreen
Protocol: as §1

[7] = biological target: T7, recombinant human VEGF165; test: hVEGF165/hVEGFR2-Fc competition AlphaScreen
Protocol: as §1

[8] = biological target: T5, recombinant mouse VEGF164; test: binding ELISA on coated mouse VEGF164
Protocol: (§3) Cross-reactivity to mouse VEGF164 is determined using a binding ELISA. […] Wells are blocked with a casein solution (1% in PBS). […] A mouse VEGF164 reactive mAb is included as positive control.

[9] = biological target: T7, recombinant human VEGF165; test: SPR Biacore T100, hVEGF165 on chip, Two State Reaction model
Protocol: (§4) Samples are injected for 2 min and allowed to dissociate up to 20 min at a flow rate of 45 μI/min. In between sample injections, the chip surface is regenerated with 100 mM HCl. HBS-EP+(Hepes buffer pH7.4+EDTA) is used as running buffer. Binding curves are fitted using a Two State Reaction model by Biacore T100 Evaluation Software v2.0.1.
(§5) ^{(a)}KD = kd1/kₐ₁ * (kd2/(kd2 + kₐ₂)) ^{(b)}Curves are fitted using a Two State Reaction model by Biacore T100 Evaluation Software v2.0.1

[10] = biological target: T7, recombinant human VEGF165; test: ka1; SPR Biacore T100, hVEGF165 on chip, Two State Reaction model
Protocol: as §4, §5

[11] = biological target: T7, recombinant human VEGF165; test: kd1; SPR Biacore T100, hVEGF165 on chip, Two State Reaction model
Protocol: as §4, §5

[12] = biological target: T7, recombinant human VEGF165; test: SPR Biacore T100, Two State Reaction model; KD = kd1/ka1 * (kd2/(kd2 + ka2))
Protocol: as §4, §5

[13] = biological target: T6, recombinant human VEGF121; test: binding ELISA, coated rhVEGF121
Protocol: Binding to recombinant human VEGF121 is assessed via a solid phase binding ELISA. Briefly, recombinant human VEGF121 (R&D Systems, Minneapolis, Minn., USA) is coated overnight at 4° C. at 1 μg/mL in a 96-well MaxiSorp plate (Nunc, Wiesbaden, Germany). Wells are blocked with a casein solution (1% in PBS).

VEGF [14] = test: cell-based or functional assay; remark: listed apart in the source
[15] = biological target: T5, recombinant mouse VEGF164; test: binding ELISA, coated rmVEGF164
Protocol: as §3

[16] = biological target: T7, recombinant human VEGF165; test: VEGF165/hVEGFR1-Fc competition ELISA

% inhibition, VEGF HUVEC Erk phosphorylation assay (VEGF [1]) | IC50 (nM), VEGF HUVEC Erk phosphorylation assay (VEGF [1]) | EC50 [2] | % inhibition [3] | IC50 [3] | IC50 [4] | binding result (human VEGF-C) | binding result (human PIGF) | % inhibition [5] | IC50 [5] | binding result (human VEGF-B) | binding result (human VEGF-D) | % inhibition [6] | IC50 [6] | % inhibition [7] | IC50 [7] | ka2 [9] | kd2 [9] | kon [10] | koff [11] | Binder | also measured
100% | 0.25 nM | 0.221 nM | 91% | 0.044 nM | 0.038 nM | no binding (tested: 5e-7 M) | no binding (tested: 5e-7 M) | 100% | 0.213 nM | no binding (tested: 5e-7 M) | no binding (tested: 5e-7 M) | 87% | 0.048 nM | 100% | 0.046 nM | 0.024 s⁻¹ | 0.00027 s⁻¹ | 300000 M⁻¹ s⁻¹ | 0.018 s⁻¹ | VEGFBII023 (VHH, biparatopic bivalent VHH in one chain; also called VEGFBII23B04-40GS-10E07; VEGFBI023) EVQLVESGGGLVQTGDSLRLSCEVSGRTFSSYSMGWFRQAQGKEREFVVAISKGGYKYDSVSLEGRFTISKDNAKNTVYLQINSLKPEDTAVYYCASSRAYGSSRLRLADTYEYWGQGTQVTVSSGGGGSGGGGSGGGGSGGGGSGGGGSGGGGSGGGGSGGGGSEVQLVESGGGLVQAGGSLRLSCAASGRTFSNYAMGWFRQAPGKERVLVADISSSGINTYVADAVKGRFTISRDNAKNTVYLQMNSLKPEDTAVYYCAASAWWYSQMARDNYRYWGQGTQVTVSS | binding result [8]: binds; Kd [12]: 0.69 nM
99% | 0.23 nM | 0.668 nM | 82% | 0.039 nM | 0.051 nM | no binding (tested: 5e-7 M) | no binding (tested: 5e-7 M) | 100% | 0.577 nM | no binding (tested: 5e-7 M) | no binding (tested: 5e-7 M) | 82% | 0.071 nM | 100% | 0.051 nM | 0.018 s⁻¹ | 0.00037 s⁻¹ | 330000 M⁻¹ s⁻¹ | 0.017 s⁻¹ | VEGFBII025 (VHH, biparatopic bivalent VHH in one chain; also called VEGFBII10E07-40GS-23B04) EVQLVESGGGLVQAGGSLRLSCAASGRTFSNYAMGWFRQAPGKERVLVADISSSGINTYVADAVKGRFTISRDNAKNTVYLQMNSLKPEDTAVYYCAASAWWYSQMARDNYRYWGQGTQVTVSSGGGGSGGGGSGGGGSGGGGSGGGGSGGGGSGGGGSGGGGSEVQLVESGGGLVQTGDSLRLSCEVSGRTFSSYSMGWFRQAQGKEREFVVAISKGGYKYDSVSLEGRFTISKDNAKNTVYLQINSLKPEDTAVYYCASSRAYGSSRLRLADTYEYWGQGTQVTVSS | EC50 [13]: 0.475 nM; binding result [8]: binds; Kd [12]: 1.1 nM
103% | 0.21 nM | 0.334 nM | 100% | 0.016 nM | 0.009 nM | no binding (tested: 5e-7 M) | no binding (tested: 5e-7 M) | 100% | 0.204 nM | no binding (tested: 5e-7 M) | no binding (tested: 5e-7 M) | 100% | 0.012 nM | 100% | 0.007 nM | 0.023 s⁻¹ | 0.00019 s⁻¹ | 1.2e+06 M⁻¹ s⁻¹ | 0.011 s⁻¹ | VEGFBII021 (VHH, biparatopic bivalent VHH in one chain; also called VEGFBII23B04-40GS-5B05) EVQLVESGGGLVQTGDSLRLSCEVSGRTFSSYSMGWFRQAQGKEREFVVAISKGGYKYDSVSLEGRFTISKDNAKNTVYLQINSLKPEDTAVYYCASSRAYGSSRLRLADTYEYWGQGTQVTVSSGGGGSGGGGSGGGGSGGGGSGGGGSGGGGSGGGGSGGGGSEVQLVESGGGLVQPGGSLRLSCVASGIRFMSMAWYRQAPGKHRELVARISSGGTTAYVDSVKGRFTISRDNSKNTVYLQMNSLKAEDTAVYYCNTFSSRPNPWGAGTQVTVSS | % inhibition, VEGF HUVEC proliferation assay (VEGF [14]): 98%; IC50 (nM), VEGF HUVEC proliferation assay (VEGF [14]): 0.4 nM; EC50 [15]: 0.502 nM; % inhibition [16]: 97%; IC50 [16]: 0.254 nM; Kd [12]: 0.07 nM
